Read-outs that look alike come from different tables or passages of the source. Values belong to the binder of their own block, whether it stands above or below them.
Tests used:
Test in all cases: ITC
[1] = target: T1, Ankyrin-G ANK repeats 8-14 (UniProt O70511 275-500)
T1 chain: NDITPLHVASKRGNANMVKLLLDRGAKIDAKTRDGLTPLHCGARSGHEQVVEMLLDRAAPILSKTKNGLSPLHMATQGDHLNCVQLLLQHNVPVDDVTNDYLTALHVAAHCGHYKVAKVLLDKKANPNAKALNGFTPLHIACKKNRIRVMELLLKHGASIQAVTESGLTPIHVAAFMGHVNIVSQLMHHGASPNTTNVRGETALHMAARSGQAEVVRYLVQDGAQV

[2] = target: T2, AnkG R6-24 (Rattus norvegicus)
T2 chain: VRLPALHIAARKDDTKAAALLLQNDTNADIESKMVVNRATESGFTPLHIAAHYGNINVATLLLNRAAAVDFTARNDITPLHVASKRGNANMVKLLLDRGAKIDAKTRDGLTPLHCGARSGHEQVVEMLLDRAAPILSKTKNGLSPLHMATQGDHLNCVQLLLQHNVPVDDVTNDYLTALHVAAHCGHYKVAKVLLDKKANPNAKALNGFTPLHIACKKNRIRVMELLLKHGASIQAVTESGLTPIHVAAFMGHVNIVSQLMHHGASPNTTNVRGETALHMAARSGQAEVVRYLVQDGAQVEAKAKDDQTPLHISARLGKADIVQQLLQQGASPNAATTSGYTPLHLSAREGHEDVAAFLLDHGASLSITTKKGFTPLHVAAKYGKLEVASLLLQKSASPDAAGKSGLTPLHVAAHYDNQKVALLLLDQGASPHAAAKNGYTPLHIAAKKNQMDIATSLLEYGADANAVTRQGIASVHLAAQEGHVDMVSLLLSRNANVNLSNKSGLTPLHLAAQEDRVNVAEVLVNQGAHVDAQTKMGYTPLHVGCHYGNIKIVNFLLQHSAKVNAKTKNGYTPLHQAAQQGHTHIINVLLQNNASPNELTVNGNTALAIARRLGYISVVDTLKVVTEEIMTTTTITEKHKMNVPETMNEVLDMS

[3] = target: T3, Ankyrin-G 24 ANK repeats (residues 38-855) (UniProt O70511 38-855)
T3 chain: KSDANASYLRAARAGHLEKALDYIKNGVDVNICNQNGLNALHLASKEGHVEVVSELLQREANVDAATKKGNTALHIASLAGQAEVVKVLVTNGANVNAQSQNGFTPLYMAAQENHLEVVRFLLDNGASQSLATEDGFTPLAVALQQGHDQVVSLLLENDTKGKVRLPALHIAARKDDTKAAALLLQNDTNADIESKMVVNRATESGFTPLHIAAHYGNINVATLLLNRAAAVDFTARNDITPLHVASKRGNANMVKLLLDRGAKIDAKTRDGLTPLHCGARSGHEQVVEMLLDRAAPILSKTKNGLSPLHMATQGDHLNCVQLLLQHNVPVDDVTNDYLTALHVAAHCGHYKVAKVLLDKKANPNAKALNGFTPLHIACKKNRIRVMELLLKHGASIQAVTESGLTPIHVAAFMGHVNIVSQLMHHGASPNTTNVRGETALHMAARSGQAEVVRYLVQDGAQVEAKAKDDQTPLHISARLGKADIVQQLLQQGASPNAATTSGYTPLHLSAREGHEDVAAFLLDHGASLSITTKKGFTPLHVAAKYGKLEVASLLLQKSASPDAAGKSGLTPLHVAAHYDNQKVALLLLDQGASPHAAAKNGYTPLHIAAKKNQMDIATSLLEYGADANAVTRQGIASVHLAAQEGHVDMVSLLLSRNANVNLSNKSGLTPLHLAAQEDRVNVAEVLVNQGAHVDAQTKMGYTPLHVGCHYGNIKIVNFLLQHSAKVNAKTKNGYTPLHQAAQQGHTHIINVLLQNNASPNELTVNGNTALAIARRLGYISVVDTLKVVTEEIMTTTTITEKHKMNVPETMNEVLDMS

[4] = target: T3, Ankyrin-G 24 ANK repeats (residues …)
[5] = target: E-cadherin CTD site-1 to A (mouse, UniProt P09803 734-884, Y755A | Y756A | Y757A)
[6] = target: E-cadherin CTD site-3 to A (mouse, UniProt P09803 734-884, Y861A | Y863A | W867A)
[7] = target: E-cadherin CTD site-2 to A (mouse, UniProt P09803 734-884, Y829A | Y837A)
[8] = target: E-cadherin CTD site-1, 3 to A (mouse, UniProt P09803 734-884, Y755A | Y756A | Y757A | Y861A | Y863A | W867A)
[9] = target: E-cadherin CTD site-1, 2, 3 to A (a total of 8 aromatic residue substitutions) (mouse, UniProt P09803 734-884, Y755A | Y756A | Y757A | Y829A | Y837A | Y861A | Y863A | W867A)
[10] = target: E-cadherin CTD site-2, 3 to A (mouse, UniProt P09803 734-884, Y829A | Y837A | Y861A | Y863A | W867A)
[11] = target: E-cadherin CTD site-1, 2 to A (mouse, UniProt P09803 734-884, Y755A | Y756A | Y757A | Y829A | Y837A)
[12] = target: T3, Ankyrin-G 24 ANK repeats (residues …)

Kd [1]: 7100 nM
Kd [2]: 1000 nM
B1: E-cadherin 828-869 (containing both site-2 and site-3) (domain or fragment)
chain: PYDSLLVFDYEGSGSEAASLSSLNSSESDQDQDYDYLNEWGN

Kd [3]: 5800 nM
Binder: ESDQDQDADALNEWGN [E-cadherin 854-869 Y861A,Y863A]

Kd [4]: 800 nM
B2: E-cadherin 776-884 (domain or fragment)
chain: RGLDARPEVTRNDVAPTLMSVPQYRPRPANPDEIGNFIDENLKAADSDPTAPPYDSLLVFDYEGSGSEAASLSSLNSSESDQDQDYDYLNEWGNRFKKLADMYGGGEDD

Kd [3]: 4200 nM
Binder: AAYDEEGGGEEDQDFD [E-cadherin 755-770 Y755A,Y756A]

Kd [3]: 2200 nM
Binder: YYADEEGGGEEDQDFD (domain or fragment) [E-cadherin site-1 Y757A]

Kd [12]: 600 nM
B4: E-cadherin CTD–β-catenin complex (complex)
chain 1: not shown
chain 2: MATQADLMELDMAMEPDRKAAVSHWQQQSYLDSGIHSGATTTAPSLSGKGNPEEEDVDTSQVLYEWEQGFSQSFTQEQVADIDGQYAMTRAQRVRAAMFPETLDEGMQIPSTQFDAAHPTNVQRLAEPSQMLKHAVVNLINYQDDAELATRAIPELTKLLNDEDQVVVNKAAVMVHQLSKKEASRHAIMRSPQMVSAIVRTMQNTNDVETARCTAGTLHNLSHHREGLLAIFKSGGIPALVKMLGSPVDSVLFYAITTLHNLLLHQEGAKMAVRLAGGLQKMVALLNKTNVKFLAITTDCLQILAYGNQESKLIILASGGPQALVNIMRTYTYEKLLWTTSRVLKVLSVCSSNKPAIVEAGGMQALGLHLTDPSQRLVQNCLWTLRNLSDAATKQEGMEGLLGTLVQLLGSDDINVVTCAAGILSNLTCNNYKNKMMVCQVGGIEALVRTVLRAGDREDITEPAICALRHLTSRHQEAEMAQNAVRLHYGLPVVVKLLHPPSHWPLIKATVGLIRNLALCPANHAPLREQGAIPRLVQLLVRAHQDTQRRTSMGGTQQQFVEGVRMEEIVEGCTGALHILARDVHNRIVIRGLNTIPLFVQLLYSPIENIQRVAAGVLCELAQDKEAAEAIEAEGATAPLTELLHSRNEGVATYAAAVLFRMSEDKPQDYKKRLSVELTSSLFRTEPMAWNETADLGLDIGAQGEALGYRQDDPSYRSFHSGGYGQDALGMDPMMEHEMGGHHPGADYPVDGLPDLGHAQDLMDGLPPGDSNQLAWFDTDL

Kd [12]: 1200 nM
B5: E-cadherin 776-884–β-catenin complex (protein)
chain 1: not shown
chain 2: B4 chain 2

Kd [3]: 9500 nM
Binder: PYDSLLVFDAEGSGS (domain or fragment) [E-cadherin site-2 Y837A]

Kd [3]: 3900 nM
Binder: ESDQDQDYDYLNEAGN (domain or fragment) [E-cadherin site-3 W867A]

Kd [3]: 4100 nM
Binder: AYADEEGGGEEDQDFD [E-cadherin 755-770 Y755A,Y757A]

Kd [3]: 2200 nM
Binder: YAYDEEGGGEEDQDFD (domain or fragment) [E-cadherin site-1 Y756A]

Kd [3]: 3200 nM
Binder: ESDQDQDADYLNEWGN (domain or fragment) [E-cadherin site-3 Y861A]

The next lines start with the binder.

Binder: PADSLLVFDYEGSGS (domain or fragment) [E-cadherin site-2 Y829A]
Kd [3]: 1700 nM

Binder: RDNVYYYDEEGGGEEDQDFDLSQLH (domain or fragment) [E-cadherin 751-775 (site-1)]
Kd [1]: 8900 nM
Kd [2]: 1800 nM

B3: full-length β-catenin 1-781 (natural protein)
chain: B4 chain 2
Kd [5]: 56 nM
Kd [6]: 110 nM
Kd [7]: 4800 nM
Kd [8]: 98 nM
Kd [9]: 8100 nM
Kd [10]: 1400 nM
Kd [11]: 3600 nM

Binder: AYYDEEGGGEEDQDFD (domain or fragment) [E-cadherin site-1 Y755A]
Kd [3]: 5000 nM

B6: E-cadherin 734-775 (domain or fragment)
chain: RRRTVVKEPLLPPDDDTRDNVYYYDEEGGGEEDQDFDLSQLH
Kd [4]: 1500 nM

Binder: ESDQDQDYDALNEWGN (domain or fragment) [E-cadherin site-3 Y863A]
Kd [3]: 3900 nM

B7: p120 catenin 324-938 (domain or fragment)
chain: MIGEEVPPDQYYWAPLAQHERGSLASLDSLRKGMPPPSNWRQPELPEVIAMLGFRLDAVKSNAAAYLQHLCYRNDKVKTDVRKLKGIPILVGLLDHPKKEVHLGACGALKNISFGRDQDNKIAIKNCDGVPALVRLLRKARDMDLTEVITGTLWNLSSHDSIKMEIVDHALHALTDEVIIPHSGWEREPNEDCKPRHIEWESVLTNTAGCLRNVSSERSEARRKLRECDGLVDALIFIVQAEIGQKDSDSKLVENCVCLLRNLSYQVHREIPQAERYQEALPTVANSTGPHAASCFGAKKGKDEWFSRGKKPTEDPANDTVDFPKRTSPARGYELLFQPEVVRIYISLLKESKTPAILEASAGAIQNLCAGRWTYGRYIRSALRQEKALSAIAELLTSEHERVVKAASGALRNLAVDARNKELIGKHAIPNLVKNLPGGQQNSSWNFSEDTVVSILNTINEVIAENLEAAKKLRETQGIEKLVLINKSGNRSEKEVRAAALVLQTIWGYKELRKPLEKEGWKKSDFQVNLNNASRSQSSHSYDDSTLPLIDRNQKSDKKPDREEIPMSNMGSNTKSLDNNYSTLNERGDHNRTLDRSGDLGDMEPLKGAPLMQKI
Kd [5]: > 50000 nM
Kd [6]: 2900 nM
Kd [7]: 2800 nM
Kd [8]: > 30000 nM
Kd [9]: > 50000 nM
Kd [10]: 1800 nM
Kd [11]: > 70000 nM

B8: E-cadherin 734-838 (protein)
chain: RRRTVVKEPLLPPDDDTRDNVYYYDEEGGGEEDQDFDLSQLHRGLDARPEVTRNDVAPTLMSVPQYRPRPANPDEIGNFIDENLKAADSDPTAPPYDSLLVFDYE
Kd [4]: 1100 nM

Binder: YAADEEGGGEEDQDFD [E-cadherin 755-770 Y756A,Y757A]
Kd [3]: 7100 nM

Source: paper PMC10611751 (2023)
